Data reported in patent US20130004493A1.

How the values were obtained:
[1] = biological target: Focal adhesion kinase (FAK), human (human) (UniProt Q05397); test: immunoprecipitation from ARPE-19 and ARPE-19/EMP2 lysates, Western blot densitometry
[2] = biological target: Focal adhesion kinase (FAK), human (human) (UniProt Q05397); test: cell-based or functional assay
[3] = biological target: Focal adhesion kinase (FAK), human (human) (UniProt Q05397); test: co-immunoprecipitation, Western blot for FAK, ARPE-19 cells (figure legend)
[4] = biological target: Focal adhesion kinase (FAK), human (human) (UniProt Q05397); test: co-immunoprecipitation with anti-EMP2 antibody, Western blot densitometry, ARPE-19 cells
[5] = biological target: Focal adhesion kinase (FAK), human (human) (UniProt Q05397); test: co-immunoprecipitation with anti-EMP2 antibody, Western blot densitometry, ARPE-19/EMP2 cells
[6] = biological target: Focal adhesion kinase (FAK), human (human) (UniProt Q05397); test: co-immunoprecipitation, ratio of co-immunoprecipitate to cognate immunoprecipitate, ARPE-19 cells
[7] = biological target: Focal adhesion kinase (FAK), human (human) (UniProt Q05397); test: co-immunoprecipitation, ratio of co-immunoprecipitate to cognate immunoprecipitate, ARPE-19/EMP2 cells

Sequence of Focal adhesion kinase (FAK), human (human) (Q05397 2-1052): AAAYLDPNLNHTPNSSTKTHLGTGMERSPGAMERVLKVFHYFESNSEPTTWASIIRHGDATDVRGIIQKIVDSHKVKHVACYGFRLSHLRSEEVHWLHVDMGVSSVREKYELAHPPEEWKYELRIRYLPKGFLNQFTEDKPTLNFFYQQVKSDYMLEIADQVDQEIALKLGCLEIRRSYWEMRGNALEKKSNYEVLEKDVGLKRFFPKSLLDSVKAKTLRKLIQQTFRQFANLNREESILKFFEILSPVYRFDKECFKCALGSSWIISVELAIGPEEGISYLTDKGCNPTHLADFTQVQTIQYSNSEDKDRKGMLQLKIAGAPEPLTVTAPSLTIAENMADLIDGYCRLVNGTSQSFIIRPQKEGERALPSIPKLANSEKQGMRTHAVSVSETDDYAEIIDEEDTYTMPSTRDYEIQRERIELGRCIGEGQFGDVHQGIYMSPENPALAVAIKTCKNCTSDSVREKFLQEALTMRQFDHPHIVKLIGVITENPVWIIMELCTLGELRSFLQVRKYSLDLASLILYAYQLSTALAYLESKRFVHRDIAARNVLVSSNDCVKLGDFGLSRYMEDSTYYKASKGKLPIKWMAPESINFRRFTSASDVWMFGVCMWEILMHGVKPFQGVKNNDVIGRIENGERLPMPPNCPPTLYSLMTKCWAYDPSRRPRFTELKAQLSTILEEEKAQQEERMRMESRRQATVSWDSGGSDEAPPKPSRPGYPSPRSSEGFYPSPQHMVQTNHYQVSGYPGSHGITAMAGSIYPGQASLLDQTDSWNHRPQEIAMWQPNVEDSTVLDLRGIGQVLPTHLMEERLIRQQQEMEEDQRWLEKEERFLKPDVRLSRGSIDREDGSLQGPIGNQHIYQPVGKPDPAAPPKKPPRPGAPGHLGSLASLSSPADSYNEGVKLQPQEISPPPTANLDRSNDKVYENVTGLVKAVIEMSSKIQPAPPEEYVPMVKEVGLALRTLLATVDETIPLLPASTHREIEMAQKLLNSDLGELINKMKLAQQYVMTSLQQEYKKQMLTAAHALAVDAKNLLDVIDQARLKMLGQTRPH

Substance | cognate immunoprecipitation efficiency [1] [%] | percent of FAK at the cell surface contacting the glass slide colocalized with EMP2 (confocal microscopy, ARPE-19/EMP2 cells) [2] [%] | percent of FAK at the cell surface contacting the glass slide colocalized with EMP2 (confocal microscopy, ARPE-19 cells) [2] [%] | percent of total FAK co-immunoprecipitated by EMP2 [3] [%] | level of FAK in the EMP2 immunoprecipitates [4] [%] | level of FAK in the EMP2 immunoprecipitates [5] [%] | percent of total FAK associated with EMP2 [6] [%] | percent of total FAK associated with EMP2 [7] [%]
Anti-FAK polyclonal antibody (Santa Cruz Biotechnology, clone C-20) | 50 to 60 | – | – | – | – | – | – | –
Epithelial membrane protein 2 (EMP2), human (from UniProt P54851 1-167) | – | 96 | 68 | 25 | 12 | 15 | 24 | 30
